Publication PMC11123335

What was measured:
[1] = target: pentameric IgM HB617 (UniProt P01591)
[2] = target: pentameric IgM 2G12 (UniProt P01591); assay: ELISA; competition: IgM coated (2 µg/mL); serially diluted ACB or AD2 mixed with a constant sC1q (10 µg/mL final); TBS with 2% PVP, 5 mM CaCl2, 1.5 mM MgCl2; room temperature; bound sC1q detected with anti-C1q HRP; relative IC50: OD at the highest mimetic value as 100%, without mimetic as 0%, approximate values
[3] = target: pentameric IgM HB617 (UniProt P01591); assay: as above
[4] = target: hexameric IgM 2G12 (human); assay: as above

| competitive complement activation ELISA, reduction in C4b deposition by ACB against sC1q on coated 5IgM HB617; 8-fold (20% reduction) to 16-fold (w/w) excess of ACB over sC1q [1] | maximal inhibition of sC1q binding [2] | relative IC50 [2] | maximal inhibition of sC1q binding [3] | relative IC50 [3] | maximal inhibition of sC1q binding [4] | percent inhibition of sC1q binding at 2.5–20 µg/mL ACB (lower end) [4] | relative IC50 [4] | Substance |
| --- | --- | --- | --- | --- | --- | --- | --- | --- |
| 60% | 59% | 1.3 µg/mL | 70% | 1.3 µg/mL | 77% | 67 to 77% | 1.3 µg/mL | C1q mimetic ACB (single-chain globular region of C1q) (from UniProt P02745 115-245; P02747 115-245; P02746 117-253) |
|  | 23% | 1.3 µg/mL | 39% | 1.3 µg/mL | 47% |  | 0.6 µg/mL | C1q mimetic ACB-AD2 (ACB fused to domain 2 of human serum albumin) (from UniProt P02745 115-245; P02747 115-245; P02746 117-253; P02768 211-403) |
